Reference: paper PMC12628392, “Reengineered Anti-CD4 Cys-diabody Variants for ^89Zr-immunoPET of CD4^+ T Cells in Immunocompetent Mice” (Molecular Imaging and Biology, 2025)
Positions count from the first letter of the chain named. Names and notes keep the numbering of the source.

B1: Parental anti-mouse CD4 antibody GK1.5 (rat IgG2b,k) (antibody, V domains shown)
VH: EVQLQQSGAELGKPGTSVKLSCKVSDYNIRRTYMHWVNQRPGKGLEWIGRIDPANGNTIYGEKFKSKATLTADTSSNTAYMQLSQLKSDDTAFYYCAIGVQYLDYWGQGVMVTVSS
VL: DIVLTQSPASLAVSPGERVTISCRATESVSTLIHWFQQRPGQQPKLLIYLTSHLDSGVPARFSGSGSGTDFTLTIDPVEADDTATYYCQQTWNDPWTFGGGTKLELK
notes: VH of hybridoma GK1.5; constant region of rat IgG2b heavy chain; VL of hybridoma GK1.5; constant region of rat kappa light chain; rat IgG2b, kappa; also called GK1.5 IgG; parental full-length GK1.5 IgG; source: bought: BioLegend Cat# 100401; copies: 2 + 2
B2: GK1.5 FR cDb (scFv, V domains shown)
VH: EVKLQESGGGLVQPGRSLKLSCAASGFNIRRTYMHWVRQAPGKGLEWIGRIDPANGNTIYGEKFKSKFTISRDNAQNTLYLQMSKLGSEDTAIYYCAIGVQYLDYWGQGVMVTVSS
VL: DIVLTQSPAMAMSPGERITISCRATESVSTLIHWYQQKPGQQPKLLIYLTSHLDSGVPARFSGSGSGTDFTLTIDPVEANDTATYYCQQTWNDPWTFGGGTKLELK
notes: as the VH of m1: CDRs of GK1.5 on the VH framework of YTS169; five amino acid linker, printed as G4S (VH-G4S-VL-Cys-His); C-terminal cysteine residue for site-specific conjugation, before the His6 tag; cys-diabody: covalent homodimer of the scFv; parent of m1; also called CDR-grafted cys-diabody; glycosylated GK1.5 FR cDb; source: production and purification told in the supplementary information
B3: GK1.5 N80D cDb (scFv, V domains shown)
VH: B2 VH
VL: B2 VL with N80D
notes: VH: CDRs of GK1.5 (contact definition) on the VH framework of YTS169; five amino acid linker, printed as G4S (VH-G4S-VL-Cys-His); VL of GK1.5 FR cDb (CDRs of GK1.5 on the VL framework of YTS169) with N80D (L81 in Kabat numbering); C-terminal cysteine residue for site-specific conjugation, before the His6 tag; cys-diabody: covalent homodimer of the scFv (MW 52.2 kDa), inter-chain disulfide between …

Experiments:
recombinant mouse CD4 = biological target: T1, recombinant mouse CD4 (Mus musculus, strain , UniProt P06332); assay: ELISA; saturation binding curves on immobilized recombinant mouse CD4; half-maximal binding (EC50), apparent affinity; settings: both partners purified
T1 construct: CD4, mouse, recombinant; the supplementary information may tell source and limits; also called immobilized CD4 antigen; soluble murine CD4

[1] = biological target: mouse CD4 on splenocytes / CD4+ T cells (mouse (endogenous in splenocytes)) (UniProt P06332)
DFO-GK1.5 FR cDb (rat) = assay: SEC; DFO-conjugated cDbs (inter-chain disulfide broken) compared with unconjugated cDbs; single peaks
[2] = biological target: mouse CD4 on splenocytes / CD4+ T cells (mouse (endogenous in splenocytes)) (UniProt P06332); remark: listed apart in the source
BSA = biological target: T2, BSA (Bos taurus, UniProt P02769); assay: ELISA; control: BSA instead of CD4; data not shown; settings: both partners purified
T2 construct: serum albumin, printed only as BSA; also called control (BSA)

DFO-GK1.5 N80D cDb (rat) = assay: SEC; DFO-conjugated cDbs (inter-chain disulfide broken) compared with unconjugated cDbs; single peaks

T1 sequence (P06332 27-457): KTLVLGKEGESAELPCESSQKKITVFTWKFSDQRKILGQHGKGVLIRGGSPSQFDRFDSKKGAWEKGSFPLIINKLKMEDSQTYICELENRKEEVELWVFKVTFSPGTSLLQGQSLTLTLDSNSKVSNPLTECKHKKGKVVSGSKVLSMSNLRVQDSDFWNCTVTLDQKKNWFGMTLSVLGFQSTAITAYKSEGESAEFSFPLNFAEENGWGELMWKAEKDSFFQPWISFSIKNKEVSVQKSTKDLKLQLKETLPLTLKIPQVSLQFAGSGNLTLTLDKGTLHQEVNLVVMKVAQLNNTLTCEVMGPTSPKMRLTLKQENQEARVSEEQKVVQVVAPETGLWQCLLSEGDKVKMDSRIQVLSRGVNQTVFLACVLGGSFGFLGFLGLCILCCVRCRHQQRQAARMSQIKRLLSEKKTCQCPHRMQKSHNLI
Sequence of mouse CD4 on splenocytes / CD4+ T cells (mouse (endogenous in splenocytes)) (P06332 27-457): as above
T2 sequence (P02769 25-607): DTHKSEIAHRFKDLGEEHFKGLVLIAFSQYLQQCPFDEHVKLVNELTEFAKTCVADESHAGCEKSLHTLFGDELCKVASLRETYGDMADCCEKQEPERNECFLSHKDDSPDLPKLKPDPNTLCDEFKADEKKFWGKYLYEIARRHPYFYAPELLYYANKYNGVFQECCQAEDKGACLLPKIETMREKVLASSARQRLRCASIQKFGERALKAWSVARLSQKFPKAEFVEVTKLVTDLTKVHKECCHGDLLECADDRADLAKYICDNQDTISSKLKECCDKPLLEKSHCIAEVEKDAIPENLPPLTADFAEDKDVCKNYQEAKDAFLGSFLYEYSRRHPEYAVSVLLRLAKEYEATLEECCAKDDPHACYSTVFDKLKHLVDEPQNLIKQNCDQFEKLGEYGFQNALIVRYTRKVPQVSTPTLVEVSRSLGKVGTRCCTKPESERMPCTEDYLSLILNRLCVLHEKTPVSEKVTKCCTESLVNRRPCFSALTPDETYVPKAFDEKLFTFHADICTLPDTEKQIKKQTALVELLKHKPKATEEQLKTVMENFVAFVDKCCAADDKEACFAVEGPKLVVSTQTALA

| Binder | EC50 (recombinant mouse CD4) | binding result (recombinant mouse CD4) | ex vivo biodistribution 22 h p.i. of ^89Zr-GK1.5 FR cDb (2 µg) in C57BL/6J mice: uptake in spleen [1] | ex vivo biodistribution 22 h p.i. of ^89Zr-GK1.5 FR cDb: uptake in axillary, brachial lymph nodes [1] | ex vivo biodistribution 22 h p.i. of ^89Zr-GK1.5 FR cDb: uptake in cervical lymph nodes [1] | ex vivo biodistribution 22 h p.i. of ^89Zr-GK1.5 FR cDb: uptake in inguinal lymph nodes [1] | stoichiometry N (DFO-GK1.5 FR cDb (rat)) | ex vivo biodistribution 22 h p.i. of ^89Zr-GK1.5 N80D cDb, blocked by co-injection of non-radioactive GK1.5 N80D cDb: uptake in spleen (value of the text, differs from Table 2) [2] | ex vivo biodistribution 22 h p.i. of ^89Zr-GK1.5 N80D cDb (2 µg) in C57BL/6J mice: uptake in spleen [1] | ex vivo biodistribution 22 h p.i. of ^89Zr-GK1.5 N80D cDb, blocked by co-injection of 60 µg (3 mg/kg) non-radioactive GK1.5 N80D cDb: uptake in spleen [1] | ex vivo biodistribution 22 h p.i. of ^89Zr-GK1.5 N80D cDb, blocked by co-injection of non-radioactive GK1.5 N80D cDb: uptake in axillary, brachial lymph nodes [1] | ex vivo biodistribution 22 h p.i. of ^89Zr-GK1.5 N80D cDb, blocked by co-injection of non-radioactive GK1.5 N80D cDb: uptake in cervical lymph nodes [1] | ex vivo biodistribution 22 h p.i. of ^89Zr-GK1.5 N80D cDb, blocked by co-injection of non-radioactive GK1.5 N80D cDb: uptake in inguinal lymph nodes [1] | ex vivo biodistribution 22 h p.i. of ^89Zr-GK1.5 N80D cDb: uptake in axillary, brachial lymph nodes [1] | ex vivo biodistribution 22 h p.i. of ^89Zr-GK1.5 N80D cDb: uptake in cervical lymph nodes [1] | ex vivo biodistribution 22 h p.i. of ^89Zr-GK1.5 N80D cDb: uptake in inguinal lymph nodes [1] | binding result (BSA) | stoichiometry N (DFO-GK1.5 N80D cDb (rat)) |
| --- | --- | --- | --- | --- | --- | --- | --- | --- | --- | --- | --- | --- | --- | --- | --- | --- | --- | --- |
| B1 | 2.25 nM | – | – | – | – | – | – | – | – | – | – | – | – | – | – | – | – | – |
| B2 | – | binds | 20.7 %ID/g | 10.5 %ID/g | 16.7 %ID/g | 13 %ID/g | 2 | – | – | – | – | – | – | – | – | – | – | – |
| B3 | 3 nM | – | – | – | – | – | – | 8.1 %ID/g | 48.5 %ID/g | 9.7 %ID/g | 16.6 %ID/g | 20 %ID/g | 18.3 %ID/g | 43.5 %ID/g | 66.2 %ID/g | 44.3 %ID/g | no binding | 2 |
